Assay [1] has as its target human GPRC5D protein (human) (UniProt Q9NZD1). Briefly: FACS on MM.1S cells; negative control.
Assay [2] has the same target. Put plainly: FACS on NCI-H929 cells; negative control.
The target is the same in assay [3]. Briefly: FACS on RPMI-8226 cells; negative control.

Chain of human GPRC5D protein (human) (Q9NZD1 whole entry): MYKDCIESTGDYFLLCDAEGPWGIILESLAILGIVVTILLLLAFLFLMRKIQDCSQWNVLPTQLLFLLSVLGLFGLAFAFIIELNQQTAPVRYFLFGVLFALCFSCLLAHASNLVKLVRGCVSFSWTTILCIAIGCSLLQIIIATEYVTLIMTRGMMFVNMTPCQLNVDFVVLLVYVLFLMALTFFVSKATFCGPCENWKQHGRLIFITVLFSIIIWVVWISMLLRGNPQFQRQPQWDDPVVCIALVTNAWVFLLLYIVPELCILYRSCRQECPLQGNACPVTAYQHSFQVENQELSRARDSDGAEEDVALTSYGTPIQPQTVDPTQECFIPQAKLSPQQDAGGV

Take “hIgG1 monoclonal antibody (Biointron, Cat. No. B117901)”: the Top(MFI) in assay [1] was determined as 6770 MFI; in assay [2], 4180 MFI; in assay [3] it was 3860 MFI.

(Values after patent EP4703384A1.)
